# Non-standard residues stand in square brackets, D forms with d. Primed or numbered codes have the meaning given here. azaGly′ = aza-glycine residue at the C-terminus, with NH2; Bpa = N[C@@H](Cc1ccc(C(=O)c2ccccc2)cc1)C(=O)O; d2Nal = N[C@H](Cc1ccc2ccccc2c1)C(=O)O; DO3A10CM = not defined here; Bpa4 = non-natural residue; Ahgly = not defined here; Ampc4 = not defined here; Hypt4 = not defined here; Mogly = not defined here; Ppt4 = not defined here; azaGly = NNC(=O)O
# B1: BRU-3068 (peptide)
# peptide: GXRWSHXWXPX
# modifications: N-terminal DO3A10CM; Gly linker before 1; Dtpi at 1; Darg at 6; Bpa4 at 8; azaGly-NH2 at 10
# B2: BRU-2955 (peptide)
# peptide: XRWXHXWXPX
# modifications: N-terminal DO3A10CM; Dnal2 at 1; Dap at 4; Darg at 6; Bpa4 at 8; azaGly-NH2 at 10
# B3: BRU-3115 (peptide)
# peptide: XRWXHXWXPX
# modifications: N-terminal DO3A10CM; Dnal2 at 1; Amfe4 at 4; Darg at 6; Bpa4 at 8; azaGly-NH2 at 10
# B4: BRU-3105 (peptide)
# peptide: XRXSHXWXPX
# modifications: N-terminal DO3A10CM; Dnal2 at 1; Nal2 at 3; Darg at 6; Bpa4 at 8; azaGly-NH2 at 10
# B5: BRU-2960 (peptide)
# peptide: XRWSXXWXPX
# modifications: N-terminal DO3A10CM; Dnal2 at 1; Fur3ala at 5; Darg at 6; Bpa4 at 8; azaGly-NH2 at 10
# B6: BRU-3021 (peptide)
# peptide: XRWSHXWXP
# modifications: N-terminal DO3A10CM; Dnal2 at 1; Darg at 6; Bpa4 at 8; C-terminal Az23m2po-NH2 at 10
# B7: BRU-3107 (peptide)
# peptide: XRXSHXWXPX
# modifications: N-terminal DO3A10CM; Dnal2 at 1; Amfe4 at 3; Darg at 6; Bpa4 at 8; azaGly-NH2 at 10
# B8: BRU-3062 (peptide)
# peptide: DO3A10CM-[d2Nal]RWSH[dR]W[Bpa][Ampc4][azaGly′]-NH2
# modifications: reading uncertain; also: printed as DO3A10CM-Dnal2-Arg-Trp-Ser-His-Darg-Trp-Bpa4-Ampc4-azaGly-NH2
# B9: BRU-2961 (peptide)
# peptide: XRWSXXWXPX
# modifications: N-terminal DO3A10CM; Dnal2 at 1; Orn at 5; Darg at 6; Bpa4 at 8; azaGly-NH2 at 10
# B10: BRU-2439 (peptide)
# peptide: XHWSHXWYPX
# HELM: PEPTIDE1{[Sar].H.W.S.H.[dR].W.Y.P.[O=C(NN[*:1])[*:2]].[am]}$$$$V2.0; N-terminus assumed
# SMILES: CNCC(=O)N[C@@H](Cc1c[nH]cn1)C(=O)N[C@@H](Cc1c[nH]c2ccccc12)C(=O)N[C@@H](CO)C(=O)N[C@@H](Cc1c[nH]cn1)C(=O)N[C@H](CCCNC(=N)N)C(=O)N[C@@H](Cc1c[nH]c2ccccc12)C(=O)N[C@@H](Cc1ccc(O)cc1)C(=O)N1CCC[C@H]1C(=O)NNC(N)=O
# B11: BRU-3104 (peptide)
# peptide: XRXSHXWXPX
# modifications: N-terminal DO3A10CM; Dnal2 at 1; Nal1 at 3; Darg at 6; Bpa4 at 8; azaGly-NH2 at 10
# Target: LHRH receptor (LHRH binding sites) on EFO-27 human ovarian cancer cells (human)
# Assay: competition with [125I-Tyr8]BRU-2477, EFO-27 cells
row,EC50 [nM],Binder
1,150,XHWSHXWXPX (AA1 Mephe; AA6 Darg; AA8 Bpa4; AA10 azaGly-NH2) [BRU-2734]
2,240,B1
3,410,B2
4,280,XRWSHXWXPX (DO3A10CM on N-terminus; AA1 Bip; AA6 Darg; AA8 Bpa4; AA10 azaGly-NH2) [BRU-3070]
5,150,B3
6,280,DO3A10CM-[d2Nal]RWSH[dR]W[Bpa4][Hypt4][azaGly]-NH2 (reading uncertain) [BRU-2952]
7,450,XRWSHXWXP (DO3A10CM on N-terminus; AA1 Dnal2; AA6 Darg; AA8 Bpa4; AA10 Mo2abn) [BRU-3020]
8,220,B4
9,830,DO3A10CM-[d2Nal]RWSH[dR]W[Bpa4][Ppt4][azaGly]-NH2 (reading uncertain) [BRU-2953]
10,400,B5
11,500,B6
12,380,B7
13,340,DO3A10CM-G[Mogly]HWSH[dR]W[Bpa]P[azaGly]-NH2 (reading uncertain) [BRU-2796]
14,250,XRWSRXWXPX (DO3A10CM on N-terminus; AA1 Dnal2; AA6 Darg; AA8 Bpa4; AA10 azaGly-NH2) [BRU-2959]
15,320,B8
16,350,B9
17,500,DO3A10CM-G[Ahgly]HWSH[dR]W[Bpa]P[azaGly]-NH2 (not fully specified; reading uncertain) [BRU-2876]
18,250,B10
19,250,B11

# Target: LHRH binding sites on EFO-27 human ovarian cancer cells (human)
# Assay: competition with [125I-Tyr8]BRU-2477 on EFO-27 cells
EC50 [nM],factor of reduced binding against BRU-2813 [fold],Binder
150,,XHWSHXWXPX (AA1 Mephe; AA6 Darg; AA8 Bpa4; AA10 azaGly-NH2) [BRU-2734]
240,,B1
410,,B2
280,,XRWSHXWXPX (DO3A10CM on N-terminus; AA1 Bip; AA6 Darg; AA8 Bpa4; AA10 azaGly-NH2) [BRU-3070]
150,,B3
280,,DO3A10CM-[d2Nal]RWSH[dR]W[Bpa4][Hypt4][azaGly]-NH2 (reading uncertain) [BRU-2952]
450,,XRWSHXWXP (DO3A10CM on N-terminus; AA1 Dnal2; AA6 Darg; AA8 Bpa4; AA10 Mo2abn) [BRU-3020]
220,,B4
650,2,DO3A10CM-[d2Nal]RWSH[dR]W[Bpa4][Ppt4][azaGly]-NH2 (reading uncertain) [BRU-2953]
400,,B5
500,,B6
380,,B7
340,,DO3A10CM-G[Mogly]HWSH[dR]W[Bpa]P[azaGly]-NH2 (reading uncertain) [BRU-2796]
250,,XRWSRXWXPX (DO3A10CM on N-terminus; AA1 Dnal2; AA6 Darg; AA8 Bpa4; AA10 azaGly-NH2) [BRU-2959]
320,,B8
350,,B9
500,,DO3A10CM-G[Ahgly]HWSH[dR]W[Bpa]P[azaGly]-NH2 (not fully specified; reading uncertain) [BRU-2876]
250,,B10
250,,B11

# — US20120045393A1 (priority 2009, published 2012)
